The target in assay [1] is T1, Human EpCAM-Fc-his tagged (human).
T1 construct: also called Recombinant polyhistidine-tagged EpCAM-Fc; recombinant EpCAM
Description: BLI (ForteBio Octet), antibody loaded on Protein A tips, recombinant polyhistidine-tagged EpCAM-Fc in solution, 1:1 model. As for the experimental part: For Octet analysis, all reagents and samples are brought to room temperature. Protein A sensor tips (ForteBio, #18-5010) are hydrated for 10 minutes in 1×PBS. Assay steps include: 1-2 minutes of equilibration in 1×PBS, 4 minutes of antibody loading (concentration of 50 μg/ml in 1×PBS), 1-2 minutes of baseline stabilization, 4 minutes of antibody:antigen association, and 4 minutes of antibody:antigen dissociation. 1×PBS is used as the matrix throughout. Data are analyzed with Octet Data Analysis software, processed, and fit to a 1:1 binding model to determine kinetic parameters (Kd, kₒₙ and kdiss).
Table A-2 describes approximate EpCAM binding affinity and dissociation rate as determined for Ab#1, Ab#2, Ab#3, Ab#4, Ab#5, Ab#6, Ab#7, Ab#8, Ab#9, Ab#10, Ab#11, Ab#12, and Ab#13.

The target of assay [2] is T2, cMet-his (Homo sapiens (Human), UniProt P08581 25-933).
T2 construct: also called his tagged cMET; Recombinant polyhistidine-tagged c-Met
Description: BLI (ForteBio Octet), antibody loaded on Protein A tips, his tagged cMET in solution, 1:1 model. As to the method:
Protocol: All reagents are equilibrated and samples are brought to room temperature. Protein A sensor tips (Fortebio, #18-5010) are hydrated for 10 min in 1×PBS. Kinetic assays are run using the Octet software and procedure per manufacturer's instruction. Assay steps typically include: 1-2 min of equilibration in 1×PBS, 4 min of antibody loading (conc: 50 μg/mL in 1×PBS), 1-2 min of baseline stabilization, 4 min of antibody:antigen association, and 4 min of antibody:antigen dissociation. 1×PBS is used as the matrix throughout. Data are analyzed with Octet Data Analysis software, processed, and fit to the curve using 1:1 binding model to determine kinetic parameters (Kₐ, Kₒₙ and Koff)

T1 sequence (chain, as listed by the source): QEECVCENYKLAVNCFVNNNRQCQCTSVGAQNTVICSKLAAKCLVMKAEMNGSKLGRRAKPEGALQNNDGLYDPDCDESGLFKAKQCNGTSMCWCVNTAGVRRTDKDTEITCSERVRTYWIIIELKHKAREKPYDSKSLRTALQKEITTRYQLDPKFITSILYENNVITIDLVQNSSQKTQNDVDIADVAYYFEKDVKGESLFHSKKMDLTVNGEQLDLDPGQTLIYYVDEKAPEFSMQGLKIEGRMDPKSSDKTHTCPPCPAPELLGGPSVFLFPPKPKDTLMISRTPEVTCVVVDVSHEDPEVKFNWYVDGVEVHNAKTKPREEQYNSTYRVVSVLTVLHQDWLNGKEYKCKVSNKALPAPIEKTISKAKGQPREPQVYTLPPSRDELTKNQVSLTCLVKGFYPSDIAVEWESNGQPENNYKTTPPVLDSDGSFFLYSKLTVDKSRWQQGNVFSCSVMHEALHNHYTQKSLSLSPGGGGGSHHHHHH

B1: Ab#12 (bispecific antibody)
heavy: QLQLQESGPGLVKPSETLSLTCTVSGGSISSSVYYWSWIRQPPGKGLEWIGVIYPSGNTYYSPSLKSRVTISVDTSKNQFSLKLSSVTAADTAVYYCARTIYDLFDIWGQGTMVTVSSASTKGPSVFPLAPSSKSTSGGTAALGCLVKDYFPEPVTVSWNSGALTSGVHTFPAVLQSSGLYSLSSVVTVPSSSLGTQTYICNVNHKPSNTKVDKKVEPKSCDKTHTCPSCPAPEFLGGPSVFLFPPKPKDTLMISRTPEVTCVVVDVSQEDPEVQFNWYVDGVEVHNAKTKPREEQFNSKYRVVSVLTVLHQDWLNGKEYKCKVSNKGLPSSIEKTISKAKGQPREPQVYTLPPSREEMTKNQVSLSCAVKGFYPSDIAVEWESNGQPENNYKTTPPVLDSDGSFFLVSKLTVDKSRWQQGNVFSCSVMHEALHNHYTQKSLSLSKSCDKTGGGGSGGGGSGGGGSGGGGSGGGGSGGGGSGGGGSGGGGSCPSCPAPEFLGGPSVFLFPPKPKDTLMISRTPEVTCVVVDVSQEDPEVQFNWYVDGVEVHNAKTKPREEQFNSDYRVVSVLTVLHQDWLNGKEYKCKVSNKGLPSSIEKTISKAKGQPREPQVYTLPPSREEMTKNQVSLWCLVKGFYPSDIAVEWESNGQPENNYKTTPPVLDSDGSFFLYSKLTVDKSRWQQGNVFSCSVMHEALHNHYTQKSLSLSGECGGGGSGGGGSDIVMTQSPSSLSASVGDKATITCRSTKSLLHSDGITYLYWYLQKPGKAPKLLIYQLSNLASGVPDRFSSSGSGTEFTLTISSVQPEDEGTYYCAQNLEIPRTFGQGTKLEIKRTGGGGSGGGGSGGGGSGGGGSGQVQLQQSGGGLVKPGESVKISCAASGYTFTNYGMNWVKQAPGKGLKWMGWINTYTGESTYADDFKGRFTFSLETSASAAYLQINSLRPEDTAVYFCARFAIKGDYWGQGTTVTVSS
light: DIQMTQSPSSVSASVGDRVTITCRASQGISSWLAWYQQKPGKAPKLLIYAASSLQSGVPSRFSGSGSGTDFTLTISSLQPEDFATYYCLQANSFPPTFGGGTKVEIKRTVAAPSVFIFPPSDEQLKSGTASVVCLLNNFYPREAKVQWKVDNALQSGNSQESVTEQDSKDSTYSLSSTLTLSKADYEKHKVYACEVTHQGLSSPVTKSFNRGEC
notes: Anti-c-Met Fab / tandem Fc / anti-EpCAM scFv TFcBA; also called Antibody #12
As for B1, in assay [1], the Kd was found to be 24.5 nM and the koff is 0.00166 s⁻¹.

B2: Onartuzumab-23E (antibody)
heavy: EVQLVESGGGLVQPGGSLRLSCAASGYTFTSYWLHWVRQAPGKGLEWVGMIDPSNSDTRFNPNFKDRFTISADTSKNTAYLQMNSLRAEDTAVYYCATYRSYVTPLDYWGQGTLVTVSSASTKGPSVFPLAPSSKSTSGGTAALGCLVKDYFPEPVTVSWNSGALTSGVHTFPAVLQSSGLYSLSSVVTVPSSSLGTQTYICNVNHKPSNTKVDKKVEPKSCDKTHTCPPCPAPELLGGPSVFLFPPKPKDTLMISRTPEVTCVVVDVSHEDPEVKFNWYVDGVEVHNAKTKPREEQYQSTYRVVSVLTVLHQDWLNGKEYKCKVSNKALPAPIEKTISKAKGQPREPQVYTLPPSREEMTKNQVSLSCAVKGFYPSDIAVEWESNGQPENNYKTTPPVLDSDGSFFLVSKLTVDKSRWQQGNVFSCSVMHEALHNHYTQKSLSLSKSCDKTGGGGSGGGGSGGGGSGGGGSGGGGSGGGGSGGGGSGGGGSCPPCPAPELLGGPSVFLFPPKPKDTLMISRTPEVTCVVVDVSHEDPEVKFNWYVDGVEVHNAKTKPREEQYQSTYRVVSVLTVLHQDWLNGKEYKCKVSNKALPAPIEKTISKAKGQPREPQVYTLPPSREEMTKNQVSLWCLVKGFYPSDIAVEWESNGQPENNYKTTPPVLDSDGSFFLYSKLTVDKSRWQQGNVFSCSVMHEALHNHYTQKSLSLSGEC
light: DIQMTQSPSSLSASVGDRVTITCKSSQSLLYTSSQKNYLAWYQQKPGKAPKLLIYWASTRESGVPSRFSGSGSGTDFTLTISSLQPEDFATYYCQQYYAYPWTFGQGTKVEIKRTVAAPSVFIFPPSDEQLKSGTASVVCLLNNFYPREAKVQWKVDNALQSGNSQESVTEQDSKDSTYSLSSTLTLSKADYEKHKVYACEVTHQGLSSPVTKSFNRGEC
notes: Monovalent tandem Fc antibody: onartuzumab anti-c-Met Fab on IgG1 TFc 23E
Consider B2, for which the Kd in assay [2] was 1.3 nM.

B3: Onartuzumab-39 (antibody)
heavy: EVQLVESGGGLVQPGGSLRLSCAASGYTFTSYWLHWVRQAPGKGLEWVGMIDPSNSDTRFNPNFKDRFTISADTSKNTAYLQMNSLRAEDTAVYYCATYRSYVTPLDYWGQGTLVTVSSASTKGPSVFPLAPSSKSTSGGTAALGCLVKDYFPEPVTVSWNSGALTSGVHTFPAVLQSSGLYSLSSVVTVPSSSLGTQTYICNVNHKPSNTKVDKKVEPKSCDKTHTCPSCPAPEFLGGPSVFLFPPKPKDTLMISRTPEVTCVVVDVSQEDPEVQFNWYVDGVEVHNAKTKPREEQFNSKYRVVSVLTVLHQDWLNGKEYKCKVSNKGLPSSIEKTISKAKGQPREPQVYTLPPSREEMTKNQVSLSCAVKGFYPSDIAVEWESNGQPENNYKTTPPVLDSDGSFFLVSKLTVDKSRWQQGNVFSCSVMHEALHNHYTQKSLSLSPGKGGGGSGGGGSGGGGSGGGGSGGGGSGGGGSGGGGSGGGGSCPSCPAPEFLGGPSVFLFPPKPKDTLMISRTPEVTCVVVDVSQEDPEVQFNWYVDGVEVHNAKTKPREEQFNSKYRVVSVLTVLHQDWLNGKEYKCKVSNKGLPSSIEKTISKAKGQPREPQVYTLPPSREEMTKNQVSLWCLVKGFYPSDIAVEWESNGQPENNYKTTPPVLDSDGSFFLYSKLTVDKSRWQQGNVFSCSVMHEALHNHYTQKSLSLSPGK
light: DIQMTQSPSSLSASVGDRVTITCKSSQSLLYTSSQKNYLAWYQQKPGKAPKLLIYWASTRESGVPSRFSGSGSGTDFTLTISSLQPEDFATYYCQQYYAYPWTFGQGTKVEIKRTVAAPSVFIFPPSDEQLKSGTASVVCLLNNFYPREAKVQWKVDNALQSGNSQESVTEQDSKDSTYSLSSTLTLSKADYEKHKVYACEVTHQGLSSPVTKSFNRGEC
notes: Monovalent tandem Fc antibody: onartuzumab anti-c-Met Fab on IgG1/IgG4 hybrid TFc 39
In turn, B3 gave a Kd in assay [2] of 1.26 nM.

B4: Onartuzumab-23 (antibody)
heavy: EVQLVESGGGLVQPGGSLRLSCAASGYTFTSYWLHWVRQAPGKGLEWVGMIDPSNSDTRFNPNFKDRFTISADTSKNTAYLQMNSLRAEDTAVYYCATYRSYVTPLDYWGQGTLVTVSSASTKGPSVFPLAPSSKSTSGGTAALGCLVKDYFPEPVTVSWNSGALTSGVHTFPAVLQSSGLYSLSSVVTVPSSSLGTQTYICNVNHKPSNTKVDKKVEPKSCDKTHTCPPCPAPELLGGPSVFLFPPKPKDTLMISRTPEVTCVVVDVSHEDPEVKFNWYVDGVEVHNAKTKPREEQYQSTYRVVSVLTVLHQDWLNGKEYKCKVSNKALPAPIEKTISKAKGQPREPQVYTLPPSREEMTKNQVSLSCAVKGFYPSDIAVEWESNGQPENNYKTTPPVLDSDGSFFLVSKLTVDKSRWQQGNVFSCSVMHEALHNHYTQKSLSLSPGKGGGGSGGGGSGGGGSGGGGSGGGGSGGGGSGGGGSGGGGSCPPCPAPELLGGPSVFLFPPKPKDTLMISRTPEVTCVVVDVSHEDPEVKFNWYVDGVEVHNAKTKPREEQYQSTYRVVSVLTVLHQDWLNGKEYKCKVSNKALPAPIEKTISKAKGQPREPQVYTLPPSREEMTKNQVSLWCLVKGFYPSDIAVEWESNGQPENNYKTTPPVLDSDGSFFLYSKLTVDKSRWQQGNVFSCSVMHEALHNHYTQKSLSLSPGK
light: DIQMTQSPSSLSASVGDRVTITCKSSQSLLYTSSQKNYLAWYQQKPGKAPKLLIYWASTRESGVPSRFSGSGSGTDFTLTISSLQPEDFATYYCQQYYAYPWTFGQGTKVEIKRTVAAPSVFIFPPSDEQLKSGTASVVCLLNNFYPREAKVQWKVDNALQSGNSQESVTEQDSKDSTYSLSSTLTLSKADYEKHKVYACEVTHQGLSSPVTKSFNRGEC
notes: Monovalent tandem Fc antibody: onartuzumab anti-c-Met Fab on IgG1 TFc 23
With B4, the Kd in assay [2] stood at 1.24 nM.

B5: Onartuzumab-39EGY4 (antibody)
heavy: EVQLVESGGGLVQPGGSLRLSCAASGYTFTSYWLHWVRQAPGKGLEWVGMIDPSNSDTRFNPNFKDRFTISADTSKNTAYLQMNSLRAEDTAVYYCATYRSYVTPLDYWGQGTLVTVSSASTKGPSVFPLAPSSKSTSGGTAALGCLVKDYFPEPVTVSWNSGALTSGVHTFPAVLQSSGLYSLSSVVTVPSSSLGTQTYICNVNHKPSNTKVDKKVEPKSCDKTHTCPSCPAPEFLGGPSVFLFPPKPKDTLMISRTPEVTCVVVDVSQEDPEVQFNWYVDGVEVHNAKTKPREEQFNSKYRVVSVLTVLHQDWLNGKEYKCKVSNKGLPSSIEKTISKAKGQPREPQVYTLPPSREEMTKNQVSLSCAVKGFYPSDIAVEWESNGQPENNYKTTPPVLDSDGSFFLVSKLTVDKSRWQQGNVFSCSVMHEALHNHYTQKSLSLSKSCDKTGGGGSGGGGSGGGGSGGGGSGGGGSGGGGSGGGGSGGGGSCPSCPAPEFLGGPSVFLFPPKPKDTLMISRTPEVTCVVVDVSQEDPEVQFNWYVDGVEVHNAKTKPREEQFNSDYRVVSVLTVLHQDWLNGKEYKCKVSNKGLPSSIEKTISKAKGQPREPQVYTLPPSREEMTKNQVSLWCLVKGFYPSDIAVEWESNGQPENNYKTTPPVLDSDGSFFLYSKLTVDKSRWQQGNVFSCSVMHEALHNHYTQKSLSLSGEC
light: DIQMTQSPSSLSASVGDRVTITCKSSQSLLYTSSQKNYLAWYQQKPGKAPKLLIYWASTRESGVPSRFSGSGSGTDFTLTISSLQPEDFATYYCQQYYAYPWTFGQGTKVEIKRTVAAPSVFIFPPSDEQLKSGTASVVCLLNNFYPREAKVQWKVDNALQSGNSQESVTEQDSKDSTYSLSSTLTLSKADYEKHKVYACEVTHQGLSSPVTKSFNRGEC
notes: Monovalent tandem Fc antibody: onartuzumab anti-c-Met Fab on IgG1/IgG4 hybrid TFc 39E glycoform 4
In the case of B5, in assay [2], binding was put at a Kd of 1.25 nM.

Source of the values: patent US20140302035A1 (MERRIMACK PHARMACEUTICALS, published 2014).
